Experiments:
[1] = target: phosphorylated product of Flourescein-QSPKKG-CONH2 (after overnight incubation with ATP and CDK2); assay: fluorescence polarization in a cuvette, 50 mM TAPS pH 9.0, large excess of poly-D-lysine; about 38 mP without polylysine
[2] = target: Flourescein-QSPKKG-CONH2 (neutrally charged phosphorylatable CDK2 substrate); assay: fluorescence polarization in a cuvette, 50 mM TAPS pH 9.0, poly-D-lysine added in aliquots; about 38 mP without polylysine
[3] = target: phosphorylated product of Flourescein-QSPKKG-CONH2 (after overnight incubation with ATP and CDK2); assay: as above

fluorescence polarization [1]: 100 mP | fluorescence polarization [2]: 42 mP | fluorescence polarization [3]: 72 mP
Substance: poly-D-Lysine
